± gives the standard deviation of the averaged measurements.
Tests used:
[1] = test system: VchCAST RNA-guided transposition machinery (E. coli BL21(DE3) host, lacZ target); experiment: relative integration efficiency (T-LR orientation) vs wild-type transposon end (log2 (normalized fold change)); transposon end mutated: right end (5 bp flank + 75 bp right end); higher = more efficient transposition
Outline: (§1)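 Pools of 1549 left-end or 1849 right-end barcoded transposon variants were cloned into a pUC57 mini-transposon donor and co-transformed into E. coli BL21(DE3) with a T7-driven effector plasmid carrying a CRISPR array, tniQ-cas8-cas7-cas6 and tnsA-tnsB-tnsC. Plating used 0.1 mM IPTG at 37°C for 18 h, and input plasmids and genomic integration junctions were PCR-amplified for Illumina sequencing, with two biological output replicates and four reference barcodes. Relative integration efficiency is the log-transformed fold change of output over input barcode abundance, normalised to the reference barcodes.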

[2] = test system: VchCAST RNA-guided transposition machinery (E. coli BL21(DE3) host, lacZ target); experiment: relative integration efficiency (T-RL orientation) vs wild-type transposon end (log2 (normalized fold change)); transposon end mutated: right end (5 bp flank + 75 bp right end); higher = more efficient transposition
Outline: as §1

Sequence | relative integration efficiency (log2) [1] | relative integration efficiency (log2) [2]
ACATTTGTTGATACAACCAATAAATGATTATTACACCCATAAATTGATAATAATGACACCGAATTTAACTATAACGCTCTGATCATAGTCAGACCAACATTGCTACGACCCGTATTCGCACCGACAC | 3.45 ± 0.19 | 0.0749 ± 0.43
ACATTTGTTGATACAACCAATTTATGATAATTACACCCATAAATTGATAATTATCACACCCATAAATTGATATTGCCTCTGATCATAGTCAGACCAACATTGCTACGACCCGTATTCGCACCGACAC | -0.66 ± 0.3 | -0.308 ± 0.066
ACATTTGTTGATACAACCAATTTTTGATAATTACACCCAATTTATGATAATTATCACACCCAATTTATGATATTGCCTCTGATCATAGTCAGACCAACATTGCTACGACCCGTATTCGCACCGACAC | -1.18 ± 0.21 | -1.89 ± 0.22
ACATTTGTTGATACAACCAGAAAATGATAATTACACCCAGAAATTGATAATTATCACACCCAGAAATTGATATTGCCTCTGATCATAGTCAGACCAACATTGCTACGACCCGTATTCGCACCGACAC | -3.58 ± 1.1 | -5.0799 ± 0.0039
ACATTTGTTGATACAACCAGCAAATGATAATTACACCCATAAATTGATAATTATCACACCCATAAATTGATATTGCCTCTGATCATAGTCAGACCAACATTGCTACGACCCGTATTCGCACCGACAC | -3.07 ± 0.51 | -2.72 ± 0.21
ACATTTGTTGATACAACCAGCCCATGATAATTACACCCATAAATTGATAATTATCACACCCATAAATTGATATTGCCTCTGATCATAGTCAGACCAACATTGCTACGACCCGTATTCGCACCGACAC | -3.69 ± 0.75 | -4.196 ± 0.023
ACATTTGTTGATACAACCAGCCCCGTCGCCGGCACAAACGCCCGGTCGCCGGCGACACAAACGCCCGGTCGCGGTAAGAGGATCATAGTCAGACCAACATTGCTACGACCCGTATTCGCACCGACAC | -6.28 ± 0.75 | -7.56 ± 1.3
ACATTTGTTGATACAACCAGCCCCTGATAATTACACCCAGCCCGTGATAATTATCACACCCAGCCCGTGATATTGCCTCTGATCATAGTCAGACCAACATTGCTACGACCCGTATTCGCACCGACAC | -4.67 ± 2 | -6.71 ± 0.47
ACATTTGTTGATACAACCATAAAAACATAATTACACCCATAAATTGATAATTATCACACCCATAAATTGATATTGCCTCTGATCATAGTCAGACCAACATTGCTACGACCCGTATTCGCACCGACAC | -1.06 ± 0.19 | -1.45 ± 0.33
ACATTTGTTGATACAACCATAAAAACTAAATTACACCCATAAATTGATAATTATCACACCCATAAATTGATATTGCCTCTGATCATAGTCAGACCAACATTGCTACGACCCGTATTCGCACCGACAC | -1.55 ± 0.34 | -1.23 ± 0.062
ACATTTGTTGATACAACCATAAAAAGATAATTACACCCATAAATAGATAATTATCACACCCATAAATAGATATTGCCTCTGATCATAGTCAGACCAACATTGCTACGACCCGTATTCGCACCGACAC | -0.0292 ± 0.3 | -1.3 ± 0.18
ACATTTGTTGATACAACCATAAAAAGATAATTACACCCATAAATTGATAATAATGACACCGAATTTAACTATAACGCTCTGATCATAGTCAGACCAACATTGCTACGACCCGTATTCGCACCGACAC | 2.514 ± 0.018 | -1 ± 0.49
ACATTTGTTGATACAACCATAAAAAGATAATTACACCCATAAATTGATAATGATGACACCGAATTTAACTATAACGCTCTGATCATAGTCAGACCAACATTGCTACGACCCGTATTCGCACCGACAC | 2.23 ± 0.057 | -1.33 ± 0.2
ACATTTGTTGATACAACCATAAAAAGATAATTACACCCATAAATTGATAATTGTGACACCGAATTTAACTATAACGCTCTGATCATAGTCAGACCAACATTGCTACGACCCGTATTCGCACCGACAC | 2.38 ± 0.082 | -1.15 ± 0.29
ACATTTGTTGATACAACCATAAAACGATAATTACACCCATAAATGGATAATTATCACACCCAATTTAACTATAACGCTCTGATCATAGTCAGACCAACATTGCTACGACCCGTATTCGCACCGACAC | 1.52 ± 0.035 | -1.18 ± 0.21
ACATTTGTTGATACAACCATAAAACGATAATTACACCCATAAATGGATCATTATCACACCCAATTTAACTATAACGCTCTGATCATAGTCAGACCAACATTGCTACGACCCGTATTCGCACCGACAC | 1.06 ± 0.24 | -1.78 ± 0.29

Sequence | relative integration efficiency (log2) [1] | relative integration efficiency (log2) [2]
ACATTTGTTGATACAACCATAAAACGATAATTACACCCATAAATTCATAATTATCACACCCAATTTAACTATAACGCTCTGATCATAGTCAGACCAACATTGCTACGACCCGTATTCGCACCGACAC | 1.3 ± 0.2 | -2.21 ± 0.42
ACATTTGTTGATACAACCATAAAACGATAATTACACCCATAAATTCATCATTATCACACCCAATTTAACTATAACGCTCTGATCATAGTCAGACCAACATTGCTACGACCCGTATTCGCACCGACAC | 1.29 ± 0.12 | -2.21 ± 0.32
ACATTTGTTGATACAACCATAAAACGATAATTACACCCATAAATTGATCATTATCACACCCAATTTAACTATAACGCTCTGATCATAGTCAGACCAACATTGCTACGACCCGTATTCGCACCGACAC | 1.86 ± 0.099 | -1.68 ± 0.16
ACATTTGTTGATACAACCATAAAAGGATAATTACACCCATAAATGGATAATTATCACACCCATAAATGGATATTGCCTCTGATCATAGTCAGACCAACATTGCTACGACCCGTATTCGCACCGACAC | -0.23 ± 0.13 | -1.1 ± 0.065
ACATTTGTTGATACAACCATAAAAGGATAATTACACCCATAAATTGATAATTATCACACCCCATTTAACTATAACGCTCTGATCATAGTCAGACCAACATTGCTACGACCCGTATTCGCACCGACAC | 2.32 ± 0.013 | -1.31 ± 0.2
ACATTTGTTGATACAACCATAAAAGGATAATTACACCCATAAATTGATAATTATCCCACCCAATTTAACTATAACGCTCTGATCATAGTCAGACCAACATTGCTACGACCCGTATTCGCACCGACAC | 1.98 ± 0.22 | -0.818 ± 0.21
ACATTTGTTGATACAACCATAAAAGGATAATTACACCCATAAATTGATAATTATCCCACCCCATTTAACTATAACGCTCTGATCATAGTCAGACCAACATTGCTACGACCCGTATTCGCACCGACAC | 2.28 ± 0.097 | -0.775 ± 0.14
ACATTTGTTGATACAACCATAAAAGGATAATTACACCCATCAATTGATAATTATCACACCCAATTTAACTATAACGCTCTGATCATAGTCAGACCAACATTGCTACGACCCGTATTCGCACCGACAC | 1.06 ± 0.24 | -2.32 ± 0.29
ACATTTGTTGATACAACCATAAAAGGATAATTACACCCATCAATTGATAATTATCACACCCCATTTAACTATAACGCTCTGATCATAGTCAGACCAACATTGCTACGACCCGTATTCGCACCGACAC | 1.27 ± 0.19 | -2.2 ± 0.15
ACATTTGTTGATACAACCATAAAAGGATAATTACACCCATCAATTGATAATTATCCCACCCAATTTAACTATAACGCTCTGATCATAGTCAGACCAACATTGCTACGACCCGTATTCGCACCGACAC | 0.901 ± 0.1 | -1.89 ± 0.25
ACATTTGTTGATACAACCATAAAAGGATAATTACACCCATCAATTGATAATTATCCCACCCCATTTAACTATAACGCTCTGATCATAGTCAGACCAACATTGCTACGACCCGTATTCGCACCGACAC | 0.942 ± 0.22 | -1.79 ± 0.17
ACATTTGTTGATACAACCATAAAAGGATAATTACCCCCATAAATTGATAATTATCACACCCAATTTAACTATAACGCTCTGATCATAGTCAGACCAACATTGCTACGACCCGTATTCGCACCGACAC | 1.37 ± 0.093 | -1.55 ± 0.26
ACATTTGTTGATACAACCATAAAAGGATAATTACCCCCATAAATTGATAATTATCACACCCCATTTAACTATAACGCTCTGATCATAGTCAGACCAACATTGCTACGACCCGTATTCGCACCGACAC | 1.61 ± 0.2 | -1.46 ± 0.44
ACATTTGTTGATACAACCATAAAAGGATAATTACCCCCATAAATTGATAATTATCCCACCCAATTTAACTATAACGCTCTGATCATAGTCAGACCAACATTGCTACGACCCGTATTCGCACCGACAC | 2.19 ± 0.4 | -0.765 ± 0.32
ACATTTGTTGATACAACCATAAAAGGATAATTACCCCCATAAATTGATAATTATCCCACCCCATTTAACTATAACGCTCTGATCATAGTCAGACCAACATTGCTACGACCCGTATTCGCACCGACAC | 1.78 ± 0.039 | -1.2 ± 0.22
ACATTTGTTGATACAACCATAAAAGGATAATTACCCCCATCAATTGATAATTATCACACCCAATTTAACTATAACGCTCTGATCATAGTCAGACCAACATTGCTACGACCCGTATTCGCACCGACAC | -0.104 ± 0.42 | -2.86 ± 0.32
